Data reported in publication PMC8529501 (iScience, 2021).

target: mTOR (FRB)-N-Luciferase reporter; assay: split-luciferase complementation (dual element luciferase assay); set-up: unit not given here; settings: HEK293T cells, rapamycin treatment; parent: est. 13; read off a plot

response | Compound
5.5 | FKBP12-C-Luc (from UniProt P62942) E108A
16 | FKBP12-C-Luc (from UniProt P62942) K48R
10 | FKBP12-C-Luc (from UniProt P62942) K53Q

Continued, compound first:

Compound | response
FKBP12-C-Luc (from UniProt P62942) K45Q | 1.9
FKBP12-C-Luc (from UniProt P62942) K45R | 13
FKBP12-C-Luc (from UniProt P62942) K48Q | 5
FKBP12-C-Luc (from UniProt P62942) K53R | 16

target: T1, SIRT2 (Homo sapiens, UniProt Q8IXJ6); assay: ITC; also label-free MST (Kd […]) and native PAGE; format: binding; settings: not given
T1 construct: GST-tagged SIRT2 expressed in E. coli BL21
T1 sequence (Q8IXJ6 2-389): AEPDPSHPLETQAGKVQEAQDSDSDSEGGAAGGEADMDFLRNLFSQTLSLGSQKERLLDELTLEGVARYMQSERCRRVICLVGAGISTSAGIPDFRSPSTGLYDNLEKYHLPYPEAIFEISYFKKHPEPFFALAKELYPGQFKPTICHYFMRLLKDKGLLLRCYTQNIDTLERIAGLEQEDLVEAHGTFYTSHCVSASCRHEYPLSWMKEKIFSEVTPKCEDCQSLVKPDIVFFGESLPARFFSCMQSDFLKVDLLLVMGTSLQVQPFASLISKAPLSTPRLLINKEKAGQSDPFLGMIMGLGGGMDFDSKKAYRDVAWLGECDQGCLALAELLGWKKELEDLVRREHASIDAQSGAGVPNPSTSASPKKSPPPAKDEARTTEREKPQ

Compound | Kd
CO[C@H]1C[C@@H]2CC[C@@H](C)[C@@](O)(O2)C(=O)C(=O)N2CCCC[C@H]2C(=O)O[C@H]([C@H](C)C[C@@H]2CC[C@@H](O)[C@H](OC)C2)CC(=O)[C@H](C)/C=C(\C)[C@@H](O)[C@@H](OC)C(=O)[C@H](C)C[C@H](C)/C=C/C=C/C=C/1C [Rapamycin] | 9.5 nM
